Reference: US8058507B2, “HOPM1 mediated disease resistance to Pseudomonas syringae in Arabidopsis” (priority 2007, dated 2011)
Residues, ends and D or L forms follow the SMILES beside them. *: point of attachment. Cbz = O=C(OCc1ccccc1)*

Columns and labels:
[1] = tested on: AtMIN7; assay: Proteasome/protease inhibitors on HopM1-mediated destabilization of AtMIN7 in N. benthamiana leaves (immunoblot); type: cell-based, Arabidopsis thaliana; conditions: AtMIN7:HA and 6×His:HopM1 1-712 co-expressed
Experimental: AtMIN-HA and 6×His-HopM1 proteins were detected using the HA and 6×His epitope antibodies, respectively. AtMIN7-HA was pulled down with HopM1-300 but not with 6×His-HopM1301-712; and (C) Western blot and reverse transcription polymerase chain reaction analyses of HopM1-dependent destabilization of AtMIN7 in Arabidopsis plants. Leaves of Col-0 gl1 plants were infiltrated with water or 1×10^8 CFUs per milliliter of DCEL mutant bacteria with or without pORF43 and harvested 10 hours later. The endogenousAtMIN7 protein—detected with the use of a rabbit polyclonal AtMIN7 antibody—was absent in leaves infiltrated with DCEL mutant bacteria (pORF43) that produce HopM1; however, the AtMIN7 transcript level was not reduced. […] AtMIN7:HA and 6×His:HopM11-712 proteins were detected with HA and 6×His epitope antibodies, respectively.
N. benthamiana plants were transiently transformed with HopM1 and AtMIN proteins. In brief, fully expanded N. benthamiana leaves were co-infiltrated with Agrobacterium tumefaciens C58 C1 (for an example of co-infiltration techniques, see, Hellens, et al. (2005) Plant Methods, 1:13; herein incorporated by reference) comprising plasmids and genes described herein (for example, see, Bechtold, et al. (1993) Comptes Rendus De L Academie Des Sciences Serie Iii-Sciences De La Vie-Life Sciences 316(10):1194-1199; herein incorporated by reference). […]

[2] = tested on: transgenic plants expressing full-length HopM1; assay: DEX spraying of transgenic plants expressing full-length HopM1; type: in vivo, Arabidopsis
[3] = molecular target: T1, AtMIN7-HA (Arabidopsis thaliana, UniProt F4IXW2, DEL212-213/INS429[…]); assay: Protein pull-down assay in N. benthamiana leaves; type: binding; conditions: Ni-NTA pull-down, immunoblot
T1 construct: expressed in transfected cells; host or cells: Nicotiana benthamiana leaves, Agrobacterium tumefaciens C58C1 co-infiltration (pBI121-AtMIN or pBAR1-AtMIN, CaMV 35S promoter)
T1 sequence (F4IXW2 with tags, fused parts or gaps DEL212-213/INS429[withheld]): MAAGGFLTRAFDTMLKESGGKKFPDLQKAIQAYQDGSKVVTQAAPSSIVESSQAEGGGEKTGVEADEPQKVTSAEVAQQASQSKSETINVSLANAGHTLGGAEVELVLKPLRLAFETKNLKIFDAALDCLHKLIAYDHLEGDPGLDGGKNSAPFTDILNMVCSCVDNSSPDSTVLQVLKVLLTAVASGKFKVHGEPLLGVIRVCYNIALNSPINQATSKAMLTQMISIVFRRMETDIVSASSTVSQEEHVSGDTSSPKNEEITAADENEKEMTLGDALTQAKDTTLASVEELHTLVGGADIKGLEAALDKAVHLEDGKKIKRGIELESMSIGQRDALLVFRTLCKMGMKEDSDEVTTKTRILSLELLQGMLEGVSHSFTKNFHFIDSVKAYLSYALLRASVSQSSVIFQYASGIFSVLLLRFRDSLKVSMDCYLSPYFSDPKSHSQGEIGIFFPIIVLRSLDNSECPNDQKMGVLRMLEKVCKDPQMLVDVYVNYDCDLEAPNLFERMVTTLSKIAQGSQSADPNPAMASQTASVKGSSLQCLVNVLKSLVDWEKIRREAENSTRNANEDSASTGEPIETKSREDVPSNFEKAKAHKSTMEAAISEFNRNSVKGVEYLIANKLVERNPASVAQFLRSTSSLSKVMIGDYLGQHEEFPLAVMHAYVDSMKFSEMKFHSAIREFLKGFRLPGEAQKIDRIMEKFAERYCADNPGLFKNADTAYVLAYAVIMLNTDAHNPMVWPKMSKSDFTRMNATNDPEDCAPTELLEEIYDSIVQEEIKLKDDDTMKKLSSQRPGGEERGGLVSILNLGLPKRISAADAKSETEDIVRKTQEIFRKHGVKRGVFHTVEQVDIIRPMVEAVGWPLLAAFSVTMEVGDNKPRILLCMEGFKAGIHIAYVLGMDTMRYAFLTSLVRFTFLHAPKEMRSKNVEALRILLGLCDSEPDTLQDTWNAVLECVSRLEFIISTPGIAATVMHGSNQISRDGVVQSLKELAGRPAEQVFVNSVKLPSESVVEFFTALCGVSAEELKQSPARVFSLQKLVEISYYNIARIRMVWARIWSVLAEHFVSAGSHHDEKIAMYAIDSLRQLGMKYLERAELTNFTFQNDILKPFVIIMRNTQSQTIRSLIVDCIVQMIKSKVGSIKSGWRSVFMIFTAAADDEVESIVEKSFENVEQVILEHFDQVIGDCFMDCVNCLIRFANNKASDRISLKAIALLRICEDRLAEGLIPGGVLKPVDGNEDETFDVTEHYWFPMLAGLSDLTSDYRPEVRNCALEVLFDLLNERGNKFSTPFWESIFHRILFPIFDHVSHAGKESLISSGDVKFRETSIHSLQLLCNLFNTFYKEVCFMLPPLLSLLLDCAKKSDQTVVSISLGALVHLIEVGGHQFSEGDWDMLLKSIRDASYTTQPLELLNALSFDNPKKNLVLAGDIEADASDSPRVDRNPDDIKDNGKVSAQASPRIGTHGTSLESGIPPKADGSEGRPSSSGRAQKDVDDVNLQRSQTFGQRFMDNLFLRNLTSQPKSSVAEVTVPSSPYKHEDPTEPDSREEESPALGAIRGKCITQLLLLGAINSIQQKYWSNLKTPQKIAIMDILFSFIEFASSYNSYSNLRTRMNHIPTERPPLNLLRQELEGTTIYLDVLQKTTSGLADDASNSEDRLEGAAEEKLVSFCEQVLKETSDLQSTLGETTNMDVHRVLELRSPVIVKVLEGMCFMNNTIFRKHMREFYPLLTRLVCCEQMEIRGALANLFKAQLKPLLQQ
Excerpt: N. benthamiana plants were transiently transformed with HopM1 and AtMIN proteins. In brief, fully expanded N. benthamiana leaves were co-infiltrated with Agrobacterium tumefaciens C58 C1 (for an example of co-infiltration techniques, see, Hellens, et al. (2005) Plant Methods, 1:13; herein incorporated by reference) comprising plasmids and genes described herein (for example, see, Bechtold, et al. (1993) Comptes Rendus De L Academie Des Sciences Serie Iii-Sciences De La Vie-Life Sciences 316(10):1194-1199; herein incorporated by reference).
Protein pull-down analysis methods: N. benthamiana leaf discs were homogenized in lysis buffer (50 mM Tris-HCl pH=8.0, 250 mM NaCl, 10 mM β-mercaptoethanol, 1% Triton X100, 1 mM PMSF, plant protease inhibitor cocktail [Sigma Co.]). Total protein extracts were collected after centrifugation of the homogenate at 20,000-×g for 15 min at 4° C. to remove insoluble materials. The supernatant was incubated with Ni-NTA agarose beads (Qiagen) with gentle shaking for 1 hour at 4° C., followed by centrifugation at 15,000-×g for 1 min to pull down 6×His-HopM1 and its interacting proteins. Beads were then washed three times with lysis buffer and resuspended in 1×SDS-PAGE sample buffer for SDS-PAGE gel and/or immunoblot analyses. […] AtMIN10-HA was detected using the HA epitope antibody.

[4] = tested on: Arabidopsis Y2H cDNA library; assay: Yeast two-hybrid (Y2H) screening with HopM1 baits; type: binding; conditions: protein used as bait
Excerpt: A LexA-based yeast two-hybrid system was used for screening an Arabidopsis Y2H cDNA library using full-length HopM1 and the dominant-negative domain of HopM1 (HopM11-300) as bait, in separate screenings. This system was based upon a pGilda Lex A expression vector (CLONTECHniques, OCTOBER 1999 p. 26-27, Clontech Laboratories Inc.; herein incorporated by reference in its entirety) for expressing HopM1 proteins in combination with a lacZ reporter gene on a separate plasmid that autonomously replicated in yeast (CLONTECHniques, OCTOBER 1999 p. 26-27, Clontech Laboratories Inc.; herein incorporated by reference in its entirety), see below for addition information (see, MATCHMAKER LexA Two-Hybrid System Catalog #K1609-1 and MATCHMAKER LexA Libraries User Manual (PT3040-1) Version It PR67300 and (Yeast Protocols Handbook, Protocol # PT3024-1 Version # PR13103, published 14 Mar. 2001; herein incorporated by reference in its entirety).
hopM1 DNA fragments were amplified by PCR using the primers listed below and standard PCR procedures then fragments were isolated and cloned into a bait vector pGilda Lex A (resistance to ampicillin (100 μg/ml) to E. coli hosts; Protocol # PT3147-5; Version # PR81829; Clontech Laboratories, Inc.; herein incorporated by reference in its entirety). […]

[5] = tested on: Pst DC3000 ΔCEL mutant-pORF43 bacteria; assay: Bacterial multiplication and disease symptoms in HopM1 transgenic Arabidopsis plants; type: in vivo, Pseudomonas syringae
Experimental: (§1) Following inoculation, infected plants were monitored daily over a 3- to 4-day period for symptom development and bacterial multiplication. For experiments described in FIGS. 1 and 5, plants were sprayed with 30 μM dexamethasone (DEX) 24 h before bacterial inoculation (1×10^6 cfu/ml).
(§2) Leaves were harvested and surface sterilized as follows: 1) whole leaves were removed from a host plant and gently mixed in a 70% ethanol solution for 1 minute. Leaves were blotted briefly on paper towels then rinsed in sterile distilled water for 1 minute, then blotted dry on paper towels. Leaf disks were excised from leaves with a 0.5 cm^2 or smaller cork borer, depending on the size of the sample leaves; 2) leaf disks from the leaves of 2 or more independent replicate plants were pooled for a single tissue sample and placed in a 1.5-mL microfuge tube with 100 μL sterile distilled water, the amount of leaf tissue per tube was recorded as leaf surface area. Three or more samples were harvested for each time point. […] The number of serial dilutions necessary to get countable colonies were determined for each sample, however dilutions to 10^−7 were usually sufficient for any bacterial strain; 7) The samples were plated on the appropriate medium (e.g., Low salt Luria Bertani) supplemented with the necessary antibiotics to select for the specific inoculated bacterial strain. […]

[6] = tested on: Pst DC3000 ΔCEL mutant; assay: as above; type: in vivo, Pseudomonas syringae; conditions: protein expressed in transgenic Arabidopsis (Col-0 gl1), DEX-induced
Experimental: as §1, §2

`CC(C)C[C@@H](C=O)NC(=O)[C@H](CC(C)C)NC(=O)[C@H](CC(C)C)NC(=O)OCc1ccccc1` [MG132] (Cbz-Leu-Leu-Leu-aldehyde) was tested, and the “HopM1-mediated destabilization of AtMIN7” value [1] was “blocked”.

With `C[C@@H]1C[C@H]2[C@@H]3CCC4=CC(=O)C=C[C@]4(C)[C@@]3(F)[C@@H](O)C[C@]2(C)[C@@]1(O)C(=O)CO` [DEX, dexamethasone] the leaf necrosis ([2]; 0.003 μM spray) was “did not induce leaf necrosis”, the leaf necrosis ([2]; 30 μM DEX spray) was “induced rapid leaf necrosis” and the “time to leaf necrosis” value ([2]; 30 μM DEX spray) was at most 10 h.

With `CC[C@H](C)[C@H](NC(=O)[C@H]([C@@H](C)CC)N(C)C(C)=O)C(=O)N[C@H](C(=O)N[C@@H](CC(C)C)C(=O)[C@@]1(C)CO1)[C@@H](C)O` [epoxomicin] the “HopM1-mediated destabilization of AtMIN7” value [1] was “blocked”.

B1: HopM1301-712: HopM1 truncated derivative, amino acids 301-712 (protein)
chain: GPIVAAAVPQFLSSMTHLGYVRLSTSDKLRDTIPETSSDANMLKASIIGMVAGIAHETVNSVVKPMFQAALQKTGLNERLNMVPMKAVDTNTVIPDPFELKSEHGELVKKTPEEVAQDKAFVKSERALLNQKKVQGSSTHPVGELMAYSAFGGSQAVRQMLNDVHQINGQTLSARALASGFGGAVSASSQTLLQLKSNYVDPQGRKIPVFTPDRAESDLKKDLLKGMDLREPSVRTTFYSKALSGIQSSALTSALPPVTAQAEGASGTLSAGAILRNMALAATGSVSYLSTLYTNQSVTAEAKALKAAGMGGATPMLDRTETALNNIRHPNRESLPHTFQKSTLSGIPRVAENAYHMGRGALQLPTQMAVDTVRVVDEGVLNAVASAREALKQPTKDDDALRALEEGLLDPR
modifications: left off: small tags and cut ends
In the case of B1, the “physical interaction with AtMIN7-HA” value [3] is reported as “no interaction”.

B2: HopM11-300: N-terminal protective fragment of HopM1, amino acids 1-300 (SEQ ID NO:82) (protein, listed as Pseudomonas syringae)
chain: MISSRIGGAGGVELSRVNQQHDTVPAQTAHPNAVTAGMNPPLTPDQSGSHATESSSAGAARLNVAARHTQLLQAFKAEHGTAPVSGAPMISSRAALLIGSLLQAEPLPFEVMAEKLSPERYQLKQFQGSDLQQRLEKFAQPGQIPDKAEVGQLIKGFAQSVADQLEHFQLMHDASPATVGQHAKADKATLAVSQTALGEYAGRASKAIGEGLSNSIASLDEHISALDLTLQDAEQGNKESLHADRQALVDAKTTLVGLHADFVKSPEAKRLASVAAHTQLDNVVSDLVTARNTVGGWKGA
modifications: 6xHis tag
For B2, the “physical interaction with AtMIN7-HA” value [3] was “physical interaction”, the “interactors recovered in Y2H screen” value [4] was 21 and the “effect on the function of full-length HopM1 delivered from the infecting bacteria” value ([5]; fragment expressed in transgenic Arabidopsis) was “dominant-negative effect”. The “disease symptoms (necrosis and chlorosis) and bacterial multiplication” value ([5]; transgenic Arabidopsis vs Col-0 gl1 or plants expressing other truncated derivatives) was “significantly reduced”.

B3: HopM1101-712: HopM1 truncated derivative lacking the first 100 aa (SEQ ID NO:98) (protein, listed as Pseudomonas syringae)
chain: LLQAFKAEHGTAPVSGAPMISSRAALLIGSLLQAEPLPFEVMAEKLSPERYQLKQFQGSDLQQRLEKFAQPGQIPDKAEVGQLIKGFAQSVADQLEHFQLMHDASPATVGQHAKADKATLAVSQTALGEYAGRASKAIGEGLSNSIASLDEHISALDLTLQDAEQGNKESLHADRQALVDAKTTLVGLHADFVKSPEAKRLASVAAHTQLDNVVSDLVTARNTVGGWKGAGPIVAAAVPQFLSSMTHLGYVRLSTSDKLRDTIPETSSDANMLKASIIGMVAGIAHETVNSVVKPMFQAALQKTGLNERLNMVPMKAVDTNTVIPDPFELKSEHGELVKKTPEEVAQDKAFVKSERALLNQKKVQGSSTHPVGELMAYSAFGGSQAVRQMLNDVHQINGQTLSARALASGFGGAVSASSQTLLQLKSNYVDPQGRKIPVFTPDRAESDLKKDLLKGMDLREPSVRTTFYSKALSGIQSSALTSALPPVTAQAEGASGTLSAGAILRNMALAATGSVSYLSTLYTNQSVTAEAKALKAAGMGGATPMLDRTETALNNIRHPNRESLPHTFQKSTLSGIPRVAENAYHMGRGALQLPTQMAVDTVRVVDEGVLNAVASAREALKQPTKDDDALRALEEGLLDPR
B3 was tested, and the “complementation of the virulence defect (multiplication, disease symptoms)” value [6] was “partially restored”.
